Measured values from PMC10874388, “Cyclic peptides discriminate BCL-2 and its clinical mutants from BCL-XL by engaging a single-residue discrepancy” (Nature Communications, 2024).
Starred links: 1 amine or outer side, 2 acyl side, 3 side chain; linkers in the order of their positions; H or OH if unused. Positions of bridges follow the written chain, without caps; N, C: chain ends. Residues, ends and D or L forms follow the SMILES beside them. Primed or numbered codes have the meaning given here. No end group written: not given here. *: point of attachment. X1 = O=C(C[*:2])NCCNC(=O)c1ccc(C2=N[C@H](C(=O)[*:1])CS2)cc1; FITC = O=C1OC2(c3ccc(O)cc3Oc3cc(O)ccc32)c2ccc(NC(=S)*)cc21; c‑ADT″ = 2-aryl-4,5-dihydrothiazole linker; ADT (ClAc-3) = not defined here; c‑ADT = not defined here

Assays:
MCL-1 = MCL-1 (Homo sapiens, UniProt Q07820); experiment: SPR binding assay, MCL-1; conditions: NB = no binding
Chain of MCL-1 (Q07820 152-308): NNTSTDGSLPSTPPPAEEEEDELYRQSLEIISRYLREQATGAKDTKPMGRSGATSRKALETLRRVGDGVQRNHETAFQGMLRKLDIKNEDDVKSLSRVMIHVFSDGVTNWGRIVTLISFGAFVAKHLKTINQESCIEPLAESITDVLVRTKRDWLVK
Description: (§1) The DNA fragments encoding human BCL-XL ([…], with […] removed), BCL-w (residues 6–152), MCL-1 (residues 152–308) and BFL-1 (residues 1–151) as previously reported[18] were cloned into a pET-22b vector (Invitrogen), respectively. A chimeric human BCL-2 (including residues 1–50 and 92–207) was constructed, by removing the internal long loop (residues 51–91) and replacing its residues 35–50 with residues 33–48 of BCL-XL to solubilize the protein[14], and then it was cloned into a pET28a-Sumo vector (Invitrogen). All BCL-2 mutants (G101V, F104L, Y103D, D111A) were generated by mutagenic PCR, according to the QuikChange (Stratagene) protocol.
(§2) SPR assays were performed using a Biacore T200 instrument in running buffer consisting 10 mM PBS, 50 μM EDTA and 0.05% Tween-20 at 25 °C. Biotinylated proteins were immobilized on a CAP sensor chip (Cytiva, 28920234). […] The binding affinities were quantified by the Biacore evaluation software using 1:1 binding model. The reproducibility of the assays was confirmed by performing replicate determinations.

BFL-1 = target: T1, BFL-1 (Homo sapiens, UniProt Q16548); experiment: SPR binding assay, BFL-1; conditions: NB = no binding
T1 construct: BFL-1 (residues 1–151); vector-borne tag of pET-22b (Ni-NTA purification implies a His tag); made in house; host or cells: E. coli BL21 (DE3)
T1 sequence (Q16548 1-151): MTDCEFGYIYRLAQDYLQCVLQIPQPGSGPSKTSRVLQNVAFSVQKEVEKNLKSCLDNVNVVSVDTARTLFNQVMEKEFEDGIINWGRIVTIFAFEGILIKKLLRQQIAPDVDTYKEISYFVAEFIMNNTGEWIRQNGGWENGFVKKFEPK
Description: as §1, §2

[1] = target: T2, chimeric human BCL-2 (residues 1-50 and 92-207, residues 35-50 replaced with residues 33-48 of BCL-XL) (human, UniProt P10415 1-34; Q07817-1 33-48; P10415 92-207, biotinylated for the SPR assays (sites not given)); experiment: fluorescence polarisation; competition: cp2-F/BCL-2 complexes (20/400 nM) or cp3-F/BCL-XL complexes (20/600 nM) treated with unlabelled peptides from 1.0 nM to 30.0 uM; 1x PBS pH 7.4, room temperature, 10 min; Ki calculated from EC50, one-site competitive model; conditions: both partners purified
T2 construct: BCL-2, human, residues 1-34 (residues 35-50 are replaced, see next part); BCL-XL, human, residues 33-48, replacing residues 35-50 of BCL-2; BCL-2, human, residues 92-207 (internal loop 51-91 removed); also called BCL-2 WT; source: E. coli BL21 (DE3), purified (Ni-NTA, Superdex 75, RESOURCE Q, Superdex 200)
T2 chain (looked up): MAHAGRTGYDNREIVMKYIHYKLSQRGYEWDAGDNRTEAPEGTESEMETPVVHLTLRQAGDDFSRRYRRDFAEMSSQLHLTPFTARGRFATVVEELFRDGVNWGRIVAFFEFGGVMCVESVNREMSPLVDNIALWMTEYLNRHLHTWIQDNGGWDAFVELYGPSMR

[2] = target: T3, human BCL-XL (residues 1-210, with 27-81 and 210-233 removed) (human, UniProt Q07817-1 1-210, 27-81 removed, biotinylated for the SPR assays (sites not given)); experiment: as above; conditions: both partners purified
T3 construct: BCL-XL, human, residues 1-210 with the loop 27-81 removed; source: E. coli BL21 (DE3), purified (Ni-NTA, Superdex 75, RESOURCE Q, Superdex 200)
T3 sequence (Q07817 other isoform, or with tags, fused parts or gaps 27-81 removed | 27-81 removed): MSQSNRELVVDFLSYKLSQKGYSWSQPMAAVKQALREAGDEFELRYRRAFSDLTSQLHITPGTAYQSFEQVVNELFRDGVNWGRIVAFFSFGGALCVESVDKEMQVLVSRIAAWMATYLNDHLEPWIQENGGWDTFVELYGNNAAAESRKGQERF

[3] = target: T2, chimeric human BCL-2 (residues 1-50 and …); experiment: fluorescence polarisation; direct binding: 20 nM FITC-labelled peptide, protein from 60 nM to 1000 nM; 1x PBS pH 7.4, room temperature, 10 min; conditions: both partners purified
[4] = target: T3, human BCL-XL (residues 1-210, with …); experiment: as above; conditions: both partners purified
[5] = target: T2, chimeric human BCL-2 (residues 1-50 and …); experiment: SPR; Biacore T200; biotinylated proteins immobilised on a CAP sensor chip, peptides flowed over at 30 uL/min in multiple cycles; 10 mM PBS, 50 uM EDTA, 0.05% Tween-20, 25 °C; 1:1 binding model; conditions: both partners purified
[6] = target: T3, human BCL-XL (residues 1-210, with …); experiment: as above; conditions: both partners purified

CC[C@H](C)[C@@H]1NC(=O)[C@@H]2CCCN2C(=O)[C@@H]2CSC(=N2)c2ccc(cc2)C(=O)NCCNC(=O)CSC[C@@H](C(N)=O)NC(=O)[C@H](Cc2ccccc2)NC(=O)[C@H](CCC(=O)O)NC(=O)[C@H](CC(=O)O)NC(=O)[C@H](Cc2c[nH]c3ccccc23)NC(=O)[C@H](CCC(=O)O)NC(=O)[C@H](Cc2ccc(O)cc2)NC(=O)[C@H](CCCNC(=N)N)NC1=O [cp2] (PIRYEWDEFC-NH2; linker N-10 via X1)
Kd (MCL-1): > 12800 nM | Kd (BFL-1): > 12800 nM

B1: cp3 (peptide)
peptide: CPIRYPWDVEC-NH2
modifications: linker 1-11 via c‑ADT″
notes: cyclic peptide from the CPXRYXWDXXC phage library screened against BCL-XL; source: synthetic peptide
Ki [1]: 152 nM | Ki [2]: 333 nM

B2: cp3-F (peptide)
peptide: CPIRYPWDVECGK(FITC)
modifications: linker 1-11 via ADT (ClAc-3) (inferred); reading uncertain; also: modified by ClAc-3, printed as CPIRYPWDVECG{K(FITC)}
notes: also called cp3-FITC; source: synthetic peptide
Kd [3]: 177 nM | Kd [4]: 270 nM

B3: cp2-F (peptide)
peptide: CPIRYEWDEFCGK(FITC)
modifications: linker 1-11 via ADT (ClAc-3) (inferred); reading uncertain; also: modified by ClAc-3, printed as CPIRYEWDEFCG{K(FITC)}
notes: also called cp2-FITC; source: synthetic peptide
Kd [3]: 97.2 nM | Kd [4]: 810 nM

B4: cp2 (peptide)
peptide: CPIRYEWDEFC-NH2
modifications: linker 1-11 via c‑ADT″
notes: cyclic peptide from the CPXRYXWDXXC phage library screened against BCL-2; source: synthetic peptide
Ki [1]: 22.5 nM | Ki [2]: 682 nM

CPIRYEWDEFCGSGSRKKRRQRRREEEEEEEE (linker 1-11 via c‑ADT; reading uncertain, source: synthetic peptide) [cp2-TAT-8E]
Kd [5]: 140 ± 50 nM | Kd [6]: 130 ± 9 nM

CPIRYPWDVECGSGSRKKRRQRRREEEEEEEE (linker 1-11 via c‑ADT; reading uncertain, source: synthetic peptide) [cp3-TAT-8E]
Kd [5]: 70 ± 10 nM | Kd [6]: 20 ± 1 nM
